Source: doi:10.1101/2023.01.06.522972

Target: Leishmania major actin (Leishmania major) (UniProt P45520)
Assay: ITC

Chain of Leishmania major actin (Leishmania major) (P45520 2-376): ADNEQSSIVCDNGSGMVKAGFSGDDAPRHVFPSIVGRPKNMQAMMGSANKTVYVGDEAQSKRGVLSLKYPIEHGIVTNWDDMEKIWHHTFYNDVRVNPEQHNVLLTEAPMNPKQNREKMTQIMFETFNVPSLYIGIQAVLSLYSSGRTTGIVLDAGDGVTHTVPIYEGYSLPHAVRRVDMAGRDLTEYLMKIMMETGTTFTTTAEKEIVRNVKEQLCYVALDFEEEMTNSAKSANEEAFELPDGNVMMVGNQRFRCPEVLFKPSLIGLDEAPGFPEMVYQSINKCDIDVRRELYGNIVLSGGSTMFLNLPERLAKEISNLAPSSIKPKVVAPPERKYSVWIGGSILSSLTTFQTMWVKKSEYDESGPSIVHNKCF

LmProfilin-K68A (natural protein)
Kd: 6 µM

LmProfilin-Y6A (natural protein)
Kd: 0.08 µM
